Test results published in article PMC4231748, “Human PrimPol mutation associated with high myopia has a DNA replication defect”.

Target: T1, PrimPol1-354 (polymerase domain, wild type) (human, UniProt Q96LW4 1-354)
T1 sequence: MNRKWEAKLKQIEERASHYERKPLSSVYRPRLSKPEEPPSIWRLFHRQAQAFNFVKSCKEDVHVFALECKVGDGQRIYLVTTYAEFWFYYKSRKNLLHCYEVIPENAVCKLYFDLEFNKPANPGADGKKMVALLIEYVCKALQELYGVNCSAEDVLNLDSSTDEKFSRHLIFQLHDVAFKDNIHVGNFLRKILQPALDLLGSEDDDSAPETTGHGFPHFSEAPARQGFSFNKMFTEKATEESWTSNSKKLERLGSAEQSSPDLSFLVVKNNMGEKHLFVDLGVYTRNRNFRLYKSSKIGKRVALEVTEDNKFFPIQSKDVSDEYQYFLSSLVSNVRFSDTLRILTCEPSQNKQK
Assay: EMSA; 10 mM Mg2+; text gives 0.67 uM, Figure 5 legend 0.69 uM; EMSA: 60 nM DNA, 10 mM Bis-Tris-Propane-HCl pH 7.0, 10 mM MgCl2, 1 mM DTT, 25 C, 60 min; 5% polyacrylamide gel in 0.5x TBE
Conditions: protein: recombinant; label: 5'-Hex on strand 1 (HP-20); 20 bp duplex, 5' overhang 30 nt on template strand (S12), other end blunt

B1: Overhanging DNA substrate (HP-20 primer / ND-50 TemplateTT) (dsDNA)
DNA 1: TGTCGTCTGTTCGGTCGTTC
DNA 2: CGCGCAGGGCGCACAACAGCCTTGAAGACCGAACGACCGAACAGACGACA
Q: Which Kd does the source give for B1 here?
A: 690 nM
